The record followed here is US20250154287A1 (Pfizer, published 2025).

In experiment [1] the target is T1, human membrane IgA (mIgA), endogenously expressed on primary B cells and DAKIKI cells (human, UniProt P01876 1-398). Nature of the experiment: cell-based or functional assay.
For experiment [2], the target named is T1, human membrane IgA (mIgA), endogenously …. Put plainly: cell-based or functional assay. This is another data set of the same source.
Experiment [3] shares this target. Nature of the experiment: cell-based or functional assay. The source holds these as a separate data set.
For experiment [4] the target is unchanged. Nature of the experiment: cell-based or functional assay. The source holds these as a separate data set.
Experiment [5] shares this target. Put plainly: cell-based or functional assay. The source holds these as a separate data set.
For experiment [6], the target named is T2, biotinylated human MIGIS-α peptide (human, biotinylated).
T2 peptide: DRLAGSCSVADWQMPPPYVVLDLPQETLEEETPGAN
Nature of the experiment: SPR (Biacore T200, 37 C), biotinylated peptide captured, OAA as analyte, 1:1 fit.

For experiment [7], the target named is T3, biotinylated cyno MIGIS-α peptide (cynomolgus monkey).
T3 construct: domain: MIGIS-α
Described as above.

In experiment [8] the target is T2, biotinylated human MIGIS-α peptide. Put plainly: SPR, OAA format.
Experiment [9] deals with T3, biotinylated cyno MIGIS-α peptide. Nature of the experiment: SPR, OAA format.
The target of experiment [10] is T4, human membrane IgA overexpressed on Ramos cells (human).
T4 construct: its MIGIS-α segment is the short form; also called IgA^+ Ramos; human IgA^+ RAMOS cells
Put plainly: flow cytometry on IgA+ Ramos cells.

The target in experiment [11] is T5, parental (IgA^-) Ramos cell line, which expresses only cell surface IgM (UniProt P01871 1-474).
T5 construct: whole, on cells; Negative control cells without membrane IgA; also called mIgA negative Ramos cells; parental Ramos
Nature of the experiment: flow cytometry on parental Ramos cells.

T4 sequence (heavy, as listed by the source): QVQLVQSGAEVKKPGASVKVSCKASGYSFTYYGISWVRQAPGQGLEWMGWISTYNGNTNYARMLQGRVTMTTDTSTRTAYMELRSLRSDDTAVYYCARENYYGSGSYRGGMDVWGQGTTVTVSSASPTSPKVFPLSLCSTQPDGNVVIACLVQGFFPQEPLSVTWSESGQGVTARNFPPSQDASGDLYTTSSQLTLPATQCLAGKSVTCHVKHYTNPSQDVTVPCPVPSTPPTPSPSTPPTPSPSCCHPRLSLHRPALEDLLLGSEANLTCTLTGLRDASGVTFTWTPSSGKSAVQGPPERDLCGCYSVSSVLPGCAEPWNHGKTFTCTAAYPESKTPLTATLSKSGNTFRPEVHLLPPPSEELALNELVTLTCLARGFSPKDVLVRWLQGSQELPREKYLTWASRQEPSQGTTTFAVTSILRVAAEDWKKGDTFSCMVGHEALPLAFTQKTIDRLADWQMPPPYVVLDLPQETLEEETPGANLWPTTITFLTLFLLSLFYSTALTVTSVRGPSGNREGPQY
T5 sequence (P01871 whole entry): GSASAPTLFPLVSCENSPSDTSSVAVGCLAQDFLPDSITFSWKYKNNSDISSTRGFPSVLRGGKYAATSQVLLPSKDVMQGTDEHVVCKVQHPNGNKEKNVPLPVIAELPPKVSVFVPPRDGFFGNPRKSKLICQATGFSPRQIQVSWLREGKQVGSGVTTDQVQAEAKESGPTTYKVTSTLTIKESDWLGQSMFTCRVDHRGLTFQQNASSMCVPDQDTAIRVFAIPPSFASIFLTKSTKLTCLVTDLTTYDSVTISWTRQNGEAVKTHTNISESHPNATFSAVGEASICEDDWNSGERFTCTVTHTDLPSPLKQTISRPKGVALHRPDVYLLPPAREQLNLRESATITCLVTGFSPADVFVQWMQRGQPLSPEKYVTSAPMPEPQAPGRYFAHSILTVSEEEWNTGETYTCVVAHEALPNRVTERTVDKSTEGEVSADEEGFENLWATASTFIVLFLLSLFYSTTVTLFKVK
T1 sequence (P01876 whole entry): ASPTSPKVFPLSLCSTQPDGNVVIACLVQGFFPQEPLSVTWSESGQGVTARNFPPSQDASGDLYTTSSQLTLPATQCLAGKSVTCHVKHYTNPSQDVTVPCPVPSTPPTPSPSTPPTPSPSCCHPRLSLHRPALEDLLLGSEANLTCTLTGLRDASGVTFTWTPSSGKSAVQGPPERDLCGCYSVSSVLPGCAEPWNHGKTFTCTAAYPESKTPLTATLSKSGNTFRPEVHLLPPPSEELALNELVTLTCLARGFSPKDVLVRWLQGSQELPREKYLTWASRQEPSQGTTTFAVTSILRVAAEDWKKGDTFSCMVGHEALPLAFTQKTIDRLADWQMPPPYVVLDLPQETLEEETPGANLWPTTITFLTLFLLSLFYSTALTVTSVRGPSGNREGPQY

B1: GBT-IgA-0661 (T18-CD3 bispecific EFN EE/RR huIgG1) (bispecific antibody)
heavy 1: not shown
light 1: not shown
heavy 2: EVQLVESGGGLVQPGGSLRLSCAASGFTFSDYYMTWVRQAPGKGLEWVAFIRNQARGYTSDHNPSVKGRFTISRDNAKNSLYLQMNSLRAEDTAVYYCARDRPSYYVLDYWGQGTTVTVSSASTKGPSVFPLAPSSKSTSGGTAALGCLVKDYFPEPVTVSWNSGALTSGVHTFPAVLQSSGLYSLSSVVTVPSSSLGTQTYICNVNHKPSNTKVDKKVEPKSCEKTHTCPPCPAPEAAGAPSVFLFPPKPKDTLMISRTPEVTCVVVDVSHEDPEVKFNWYVDGVEVHNAKTKPREEQYNSTYRVVSVLTVLHQDWLNGKEYKCKVSNKALPAPIEKTISKAKGQPREPQVYTLPPSREEMTKNQVSLTCEVKGFYPSDIAVEWESNGQPENNYKTTPPVLDSDGSFFLYSKLTVDKSRWQQGNVFSCSVMHEALHNHYTQKSLSLSPGK
light 2: DIQMTQSPSSLSASVGDRVTITCTSSQSLFNVRSQKNYLAWYQQKPGKAPKLLIYWASTRESGVPSRFSGSGSGTDFTLTISSLQPEDFATYYCKQSYDLFTFGGGTKVEIKRTVAAPSVFIFPPSDEQLKSGTASVVCLLNNFYPREAKVQWKVDNALQSGNSQESVTEQDSKDSTYSLSSTLTLSKADYEKHKVYACEVTHQGLSSPVTKSFNRGEC
Consider B1, for which, in [1], the “reduction of secreted IgA in PBMC supernatants at 300 nM (IgA ELISA)” value was determined as 52%. Besides, the “EC50 (nM), reduction in secreted IgA in human PBMC supernatants” value in [2] was 21.2 nM. Besides, in experiment [3], the “EC50 (nM), cytotoxicity against IgA^+ CD20^+ B cells by flow cytometry” value turned out to be 2.68 nM.

B2: GBT-IgA-1164, anti-MIGIS-α/CD3 bispecific antibody (bispecific antibody)
heavy 1: not shown
light 1: not shown
heavy 2: EVQLVESGGGLVQPGGSLRLSCAASGFTFSDYYMTWVRQAPGKGLEWVAFIRNQARGYTSDHNPSVKGRFTISRDNAKNSLYLQMNSLRAEDTAVYYCARDRPSYYVLDYWGQGTTVTVSSASTKGPSVFPLAPSSKSTSGGTAALGCLVKDYFPEPVTVSWNSGALTSGVHTFPAVLQSSGLYSLSSVVTVPSSSLGTQTYICNVNHKPSNTKVDKKVEPKSCEKTHTCPPCPAPEAAGAPSVFLFPPKPKDTLMISRTPEVTCVVVDVSHEDPEVKFNWYVDGVEVHNAKTKPREEQYNSTYRVVSVLTVLHQDWLNGKEYKCKVSNKALPAPIEKTISKAKGQPREPQVYTLPPSREEMTKNQVSLTCEVKGFYPSDIAVEWESNGQPENNYKTTPPVLDSDGSFFLYSKLTVDKSRWQQGNVFSCSVMHEALHNHYTQKSLSLSPGK
light 2: DIQMTQSPSSLSASVGDRVTITCTSSQSLFNVRSQKNYLAWYQQKPGKAPKLLIYWASTRESGVPSRFSGSGSGTDFTLTISSLQPEDFATYYCKQSYDLFTFGGGTKVEIKRTVAAPSVFIFPPSDEQLKSGTASVVCLLNNFYPREAKVQWKVDNALQSGNSQESVTEQDSKDSTYSLSSTLTLSKADYEKHKVYACEVTHQGLSSPVTKSFNRGEC
In the case of B2, in experiment [4], the “EC50 (nM), IgA^+ memory B cell kill” value came out at 0.318 nM. Further, the “EC50 (nM), IgA producing B cell kill” value in experiment [5] worked out at 0.916 nM.

B3: GBT-IgA-0070 (H05 in one arm antibody format) (antibody)
heavy: not shown
chain: EPKSSDKTHTCPPCPAPEAAGAPSVFLFPPKPKDTLMISRTPEVTCVVVDVSHEDPEVKFNWYVDGVEVHNAKTKPREEQYNSTYRVVSVLTVLHQDWLNGKEYKCKVSNKALPAPIEKTISKAKGQPREPQVYTLPPCREEMTKNQVSLSCAVKGFYPSDIAVEWESNGQPENNYKTTPPVLDSDGSFFLVSKLTVDKSRWQQGNVFSCSVMHEALHNRYTQKSLSLSPGK
light: not shown
notes: also called H05 OAA
In [6], B3 yielded a Kd of 210 nM, a koff of 0.0222 s⁻¹ and an association rate constant (kon) of 105000 M⁻¹ s⁻¹. In experiment [7], this molecule yielded a Kd of 56 nM, a koff of 0.0154 s⁻¹ and a kon of 275000 M⁻¹ s⁻¹.

B4: GBT-IgA-1572 (antibody)
heavy: not shown
chain: EPKSSDKTHTCPPCPAPEAAGAPSVFLFPPKPKDTLMISRTPEVTCVVVDVSHEDPEVKFNWYVDGVEVHNAKTKPREEQYNSTYRVVSVLTVLHQDWLNGKEYKCKVSNKALPAPIEKTISKAKGQPREPQVYTLPPCREEMTKNQVSLSCAVKGFYPSDIAVEWESNGQPENNYKTTPPVLDSDGSFFLVSKLTVDKSRWQQGNVFSCSVMHEALHNRYTQKSLSLSPGK
light: not shown
notes: One-armed antibody
In experiment [6], B4 had a Kd of 3.47 nM, a koff of 0.0028 s⁻¹ and a kon of 818000 M⁻¹ s⁻¹. In addition, in experiment [7], the Kd is 3.4 nM, the koff turned out to be 0.0018 s⁻¹ and the kon amounted to 548000 M⁻¹ s⁻¹.

B5: GBT-IgA-1091 (antibody)
heavy: not shown
chain: EPKSSDKTHTCPPCPAPEAAGAPSVFLFPPKPKDTLMISRTPEVTCVVVDVSHEDPEVKFNWYVDGVEVHNAKTKPREEQYNSTYRVVSVLTVLHQDWLNGKEYKCKVSNKALPAPIEKTISKAKGQPREPQVYTLPPCREEMTKNQVSLSCAVKGFYPSDIAVEWESNGQPENNYKTTPPVLDSDGSFFLVSKLTVDKSRWQQGNVFSCSVMHEALHNRYTQKSLSLSPGK
light: not shown
notes: One-armed antibody; also called one armed antibody version of GBT-IgA-1602; OAA of GBT-IgA-1179
With B5, in experiment [6], binding was characterised by a dissociation constant (Kd) of 2.13 nM, the koff was determined as 0.0028 s⁻¹ and the on-rate (kon) came out at 1.32e+06 M⁻¹ s⁻¹. Also, in experiment [7], binding was characterised by a dissociation constant (Kd) of 2.46 nM, the off-rate constant (koff) was 0.0023 s⁻¹ and the kon was determined as 953000 M⁻¹ s⁻¹.

B6: GBT-IgA-1090 (antibody)
heavy: not shown
chain: EPKSSDKTHTCPPCPAPEAAGAPSVFLFPPKPKDTLMISRTPEVTCVVVDVSHEDPEVKFNWYVDGVEVHNAKTKPREEQYNSTYRVVSVLTVLHQDWLNGKEYKCKVSNKALPAPIEKTISKAKGQPREPQVYTLPPCREEMTKNQVSLSCAVKGFYPSDIAVEWESNGQPENNYKTTPPVLDSDGSFFLVSKLTVDKSRWQQGNVFSCSVMHEALHNRYTQKSLSLSPGK
light: not shown
notes: One-armed antibody
In experiment [6], B6 came in with a Kd of 0.724 nM, a koff of 0.0015 s⁻¹ and a kon of 2.06e+06 M⁻¹ s⁻¹. In experiment [7], the affinity, expressed as Kd, was 1.05 nM; the koff came out at 0.0013 s⁻¹; the kon is 1.27e+06 M⁻¹ s⁻¹.

B7: GBT-IgA-0752 (GBT-IgA-0862 in one armed format) (antibody)
heavy: not shown
chain: EPKSSDKTHTCPPCPAPEAAGAPSVFLFPPKPKDTLMISRTPEVTCVVVDVSHEDPEVKFNWYVDGVEVHNAKTKPREEQYNSTYRVVSVLTVLHQDWLNGKEYKCKVSNKALPAPIEKTISKAKGQPREPQVYTLPPCREEMTKNQVSLSCAVKGFYPSDIAVEWESNGQPENNYKTTPPVLDSDGSFFLVSKLTVDKSRWQQGNVFSCSVMHEALHNRYTQKSLSLSPGK
light: not shown
notes: also called one armed format of GBT-IgA-0862 and of GBT-IgA-1164
As to B7, in [8], the “fold affinity difference against GBT-IgA-1091” value was approximately 3 fold and the “fold affinity gain over T18” value is approximately 16 fold. Besides, in experiment [9], the “fold affinity difference against GBT-IgA-1091” value is approximately 3 fold and the “fold affinity gain over T18” value was approximately 14 fold. In experiment [6], this molecule returned a Kd of 0.665 nM, a koff of 0.0015 s⁻¹ and a kon of 2.29e+06 M⁻¹ s⁻¹. Also, in experiment [7], binding was characterised by a dissociation constant (Kd) of 0.795 nM, the koff was found to be 0.0017 s⁻¹ and the kon is 2.22e+06 M⁻¹ s⁻¹.

B8: GBT-IgA-0836 (T18-NKp46 bsAb) (bispecific antibody)
heavy 1: not shown
light 1: not shown
heavy 2: not shown
light 2: DIQMTQTTSSLSASLGDRVTISCRASQDISNYLNWYQQKPDGTVKLLIYYTSRLHSGVPSRFSGSGSGTDYSLTINNLEQEDIATYFCQQGNTRPWTFGGGTKLEIKRTVAAPSVFIFPPSDEQLKSGTASVVCLLNNFYPREAKVQWKVDNALQSGNSQESVTEQDSKDSTYSLSSTLTLSKADYEKHKVYACEVTHQGLSSPVTKSFNRGEC
With B8, the “reduction of secreted IgA in PBMC supernatants at 300 nM (IgA ELISA)” value in experiment [1] stood at 15%. For the same molecule, the “EC50 (nM), reduction in secreted IgA in human PBMC supernatants” value in experiment [2] is 980 nM. In addition, in experiment [3], the “EC50 (nM), cytotoxicity against IgA^+ CD20^+ B cells by flow cytometry” value was determined as 0.457 nM.

B9: GBT-IgA-0035 (ET17) (antibody, V domains shown)
VH: EVQLLESGGGLVQPGGSLRLSCAASGFTFSRYAMSWVRQVPGKGLEWVSAITGSGSGTYYADPVKGRFTISRDNSKNTLYLQMNSLRAEDTAVYHCAKERSGSSSDYWGQGTLVTVSS
VL: EIVLTQSPATLSLSPGERATLSCRASQTVGSHLAWYQQKPGQAPRLLIYEASNRATGIPPRFSGSGSGTDFTLTISSLEPEDFAVYYCQQRNNWPITFGQGTRLESKR
notes: Heavy constant region of the tested format is not tied to this name; also called E17
For the molecule B9, in [10], the EC50 was determined as 11.9 nM and the “mean fluorescence intensity at the top saturating concentration tested” value (“mean fluorescence intensity” for short) came to 23600 MFI. The binding result in experiment [11] is “no binding”.

B10: GBT-IgA-0020 (15E7) (antibody, V domains shown)
VH: EVQLLESGGGLVQPGGSLRLSCAASGFTFSSYAMSWVRQVPGKGLEWVSAITGSGSGTYYADPVKGRFTISRDNSKNTLYLQMNSLRAEDTAVYHCAKERSGSSSDYWGQGTLVTVSS
VL: EIVLTQSPATLSLSPGERATLSCRASQTVSSYLAWYQQKPGQAPRLLIYEASNRATGIPPRFSGSGSGTDFTLTISSLEPEDFAVYYCQQRNNWPITFGQGTRLESKR
Regarding B10, in [10], the EC50 was 64.5 nM and the “mean fluorescence intensity” value was determined as 23100 MFI. For the same molecule, in [11], the binding result is given as “no binding”.

B11: GBT-IgA-0036 (ET18) (antibody, V domains shown)
VH: EVQLLESGGGLVQPGGSLRLSCAASGFTFSRYAMSWVRQVPGKGLEWVSAITGSGSGTYYADPVKGRFTISRDNSKNTLYLQMNSLRAEDTAVYHCAKERSGSSSDYWGQGTLVTVSS
VL: EIVLTQSPATLSLSPGERATLSCRASQTVSSHLAWYQQKPGQAPRLLIYEASNRATGIPPRFSGSGSGTDFTLTISSLEPEDFAVYYCQQRNNWPITFGQGTRLESKR
notes: Heavy constant region of the tested format is not tied to this name; also called E18
Turning to B11, in experiment [10], the EC50 was 10.8 nM and the “mean fluorescence intensity” value is 26100 MFI. Further, the binding result in experiment [11] was “no binding”.

B12: GBT-IgA-0034 (ET10) (antibody, V domains shown)
VH: EVQLLESGGGLVQPGGSLRLSCAASGFTFSSYAMSWVRQVPGKGLEWVSSITGSGGGTYYADPVKGRFTISRDNSKNTLYLQMNSLRAEDTAVYHCAKERSGSSSDYWGQGTLVTVSS
VL: EIVLTQSPATLSLSPGERATLSCRASQTVRSHLAWYQQKPGQAPRLLIYEASNRATGIPPRFSGSGSGTDFTLTISSLEPEDFAVYYCQQRNNWPITFGQGTRLESKR
notes: Heavy constant region of the tested format is not tied to this name; also called E10
On to B12, for which, in experiment [10], the EC50 amounted to 27 nM and the “mean fluorescence intensity” value was 22600 MFI. Besides, in [11], the binding result is “no binding”.
